Data on one substance can be found in patent US20130137856A1, “PROTEIN BINDING DOMAINS STABILIZING FUNCTIONAL CONFORMATIONAL STATES OF GPCRS AND USES THEREOF” (priority 2010, published 2013).

For the test, the target named is β2AR truncated after amino acid 365 (β2AR-365) having an amino terminal Flag epitope tag, native, agonist-bound or unliganded (human) (UniProt P07550). The test is described as follows: cell-based or functional assay.

Turning to Gs heterotrimer, the High affinity state Ki of (-)-isoproterenol, [3H]-DHA competition binding, β2AR in HDL particles + Gs (β2AR alone: 107.5) amounted to 1.07 nM and the fold increase of the affinity of isoproterenol was determined as 100 fold.
